Results reported in article PMC6943663, “A Single-Turnover Kinetic Study of DNA Demethylation Catalyzed by Fe(II)/α-Ketoglutarate-Dependent Dioxygenase AlkB”.

Key:
AlkB [1] = target: T1, AlkB (Escherichia coli, UniProt P05050 1-216); experiment: stopped-flow 2aPu fluorescence, global fit (enzyme-product complex); Fe(II), aKG; after turnover; 50 mM HEPES-KOH pH 7.5, 50 mM KCl, 10 mM MgCl2, 40 uM Fe(II), 1 mM aKG, 2 mM ascorbate (composition as given for the anaerobic runs); stopped-flow at 37 C; titration temperature not given in the material; settings: protein: recombinant, tags: His6, label: 2-aminopurine
T1 sequence: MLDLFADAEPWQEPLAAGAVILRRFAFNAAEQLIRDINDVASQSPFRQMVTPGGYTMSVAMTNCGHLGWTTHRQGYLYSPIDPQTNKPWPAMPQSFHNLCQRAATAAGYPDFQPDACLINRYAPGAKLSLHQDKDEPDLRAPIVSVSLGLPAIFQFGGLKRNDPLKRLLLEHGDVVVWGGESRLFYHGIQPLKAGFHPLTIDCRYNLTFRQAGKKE

AlkB [2] = target: T1, AlkB; experiment: stopped-flow FRET; Fe(II), aKG; 50 mM HEPES-KOH pH 7.5, 50 mM KCl, 10 mM MgCl2, 40 uM Fe(II), 1 mM aKG, 2 mM ascorbate (composition as given for the anaerobic runs); stopped-flow at 37 C; titration temperature not given in the material; settings: protein: recombinant; tags: His6; label: 5'-FAM, 3'-BHQ1 on strand 1; blunt
AlkB [3] = target: T1, AlkB; experiment: stopped-flow FRET, global fit (enzyme-product complex); Fe(II), aKG; after turnover; 50 mM HEPES-KOH pH 7.5, 50 mM KCl, 10 mM MgCl2, 40 uM Fe(II), 1 mM aKG, 2 mM ascorbate (composition as given for the anaerobic runs); stopped-flow at 37 C; titration temperature not given in the material; settings: protein: recombinant, tags: His6, label: 5'-FAM
AlkB [4] = target: T1, AlkB; experiment: stopped-flow Trp fluorescence, from rate constants of steps 1-3; Fe(II), aKG; 50 mM HEPES-KOH pH 7.5, 50 mM KCl, 10 mM MgCl2, 40 uM Fe(II), 1 mM aKG, 2 mM ascorbate (composition as given for the anaerobic runs); stopped-flow at 37 C; titration temperature not given in the material; settings: protein: recombinant; tags: His6; single strand

B1: ds15A_2aPu (demethylated product of ds15m1A_2aPu) (dsDNA)
DNA 1: ACAGGAACCGGCATA
DNA 2: TATGCCGGTTCCTGT
modifications: 2-aminopurine at position 7 of strand 1 (written A)
**Q.** How did the Kd (AlkB [1]; blunt) turn out when B1 was run?
**A.** 1.8 µM

B2: ss15A_2aPu (demethylated product of ss15m1A_2aPu) (ssDNA)
DNA: ACAGGAACCGGCATA
modifications: 2-aminopurine at position 7 (written A)
**Q.** Which Kd (AlkB [1]; single strand) does the source give for B2 here?
**A.** 2.2 µM

B3: ds15m1A_FRET (dsDNA)
DNA 1: ACAGGATCCGGCATA
DNA 2: TATGCCGGATCCTGT
modifications: N1-methyladenine at position 6 of strand 1
**Q.** Does B3 bind (AlkB [2])?
**A.** binds

B4: ds15A_FRET (demethylated product of ds15m1A_FRET) (dsDNA)
DNA 1: ACAGGATCCGGCATA
DNA 2: TATGCCGGATCCTGT
**Q.** Which Kd (AlkB [3]; 3'-BHQ1 on strand 1, blunt) does the source give for B4 here?
**A.** 4.4 µM

B5: ss15m1A (ssDNA)
DNA: ACAGGATCCGGCATA
modifications: N1-methyladenine at position 6
**Q.** For B5, which Kd (AlkB [4]) is on record?
**A.** 0.0043 µM

B6: ss15A_FRET (demethylated product of ss15m1A_FRET) (ssDNA)
DNA: ACAGGATCCGGCATA
**Q.** How did the Kd (AlkB [3]; 3'-BHQ1, single strand) turn out when B6 was run?
**A.** 0.31 µM
